The data set deals with the molecule itself.

B1: AmpR effector-binding domain (protein)
chain: LLERFEGGHYRDVLTVGAVGTFTVGWLLPRLEDFQARHPFIDLRLSTHNNRVDIAAEGLDYAIRFGGGAWHGTEALALFEAPLTVLCCPEVAAQLHSPADLLQHTLLRSYRADEWPLWFQAAGLPAHAPLTRSIVFDTSLAMLEAARQGVGVALAPAAMFARQLASESIRRPFATEVSTGSYWLTRLQSRGETSAMLAFRGWLLEMAAVEARGR
The protein B1 displayed a Kd below 1000 nM.

As usually defined, the Kd is the concentration at which binding is half-saturated. High values mean lower affinity, low ones higher affinity.

The values above are taken from publication PMC5436579 (2017).
